For two substances, Bmax of [3H]NMS binding sites in COS-7 cells cotransfected with both fragments (M2trunk(1–228) alone: N.B.), Maximum inhibition of forskolin stimulated cAMP accumulation (%) by carbachol in COS-7 cells cotransfected with both fragments and Bmax of [3H]NMS binding sites in COS-7 cells cotransfected with both fragments (M2trunk(1–283) alone: N.B.) results are on record in article PMC11093360.

One assay concerns the target M2trunk(1–228) (human) (UniProt P08172).
The target in a further assay is M2trunk(1–283) (human) (UniProt P08172).

Consider “M2tail(368–466) (from UniProt P08172 368-466) (domain or fragment)”, for which, in the assay with M2trunk(1–228) (human), the Bmax of [3H]NMS binding sites in COS-7 cells cotransfected with both fragments (M2trunk(1–228) alone: N.B.) was found to be 70 fmol/mg and the Maximum inhibition of forskolin stimulated cAMP accumulation (%) by carbachol in COS-7 cells cotransfected with both fragments is 29%.

In the assay with M2trunk(1–283) (human), “M2tail(M-281-466) (from UniProt P08172 281-466) (domain or fragment)” showed a Bmax of [3H]NMS binding sites in COS-7 cells cotransfected with both fragments (M2trunk(1–283) alone: N.B.) of 480 fmol/mg and a Maximum inhibition of forskolin stimulated cAMP accumulation (%) by carbachol in COS-7 cells cotransfected with both fragments of 37%.
